This note sets out measurements from patent US20170247440A1 (Hoffmann-La Roche, published 2017).

What is called EC50 is the concentration that produces a half-maximal response. A lower EC50 goes with an effect from little substance. By koff is commonly meant a measure of how fast the partners let go of each other. Low values mean a long-lived complex, high ones a short-lived complex. As a reminder, the kon is the rate constant with which the complex forms. Low readings indicate slow association, high ones fast association. For orientation: IC50 means the concentration that gives 50% inhibition. Higher therefore signals lower potency.

Experiment [1] deals with T1, human PDGF-BB (human, UniProt P01127 82-190). Briefly: cell-based or functional assay.
Experiment [2] addresses T1, human PDGF-BB. Briefly: SPR, IgG, apparent KD (App. KD**).
Experiment [3] deals with T2, cynomolgus PDGF-BB (cynomolgus, UniProt A0A2K5UX81 82-190, Disulfide-linked homodimer of two identical B chains; one copy is given.).
T2 construct: also called cynPDGF-BB
The experiment can be described thus: ELISA, cynomolgus PDGF-BB (Example 10).

Another experiment has as its target T3, murine PDGF-BB (murine, UniProt P31240 82-190).
T3 construct: also called muPDGF-BB
The experiment can be described thus: ELISA, immobilized murine PDGF-BB (Example 11). The procedure: The binding analysis was carried out using an enzyme-linked immunosorbent assay (ELISA)-based technology. The antigen murine PDGF-BB (Peprotech 315-18) was immobilized at a concentration of 125 ng/mL in 25 μL in PBS, 0.5% BSA and 0.05% Tween on a 384 well microtiter plate (Thermo Scientific, Cat. No. 464718). Every of the following steps was followed by a washing routine of 3 times 90 μL PBS, 0.5% BSA, 0.05 Tween with dispense and aspiration: 1) blocking step: saturating unbound surface (1 hour, 2% BSA); 2) anti-PDGF-BB antibody in increasing concentrations for 1 hour; 3) detection antibody, dilution=1:3000 (ECL anti-rabbit IgG-POD, NA9340V+ECL anti-human IgG-POD, NA933V or alternatively for murine antibodies ECL anti-mouse IgG-POD; NA 9310V). 20-30 min. after adding the substrate 3,3′,5,5′-tetramethylbenzidine (TMB, Piercenet, Cat. No. 34021) the optical density was determined at 370 nm. The EC₅₀ was calculated with a four parameter logistic model using GraphPad Prism 6.0 software.
(In general: ELISA stands for enzyme-linked immunosorbent assay.)

For experiment [4], the target named is T1, human PDGF-BB. Briefly: SPR, IgG on immobilized human PDGF-BB (Example 17). As for the experimental part:
(§1) The binding analysis was carried out using a surface plasmon resonance spectroscopy-based technology applying a BIAcore B4000 system (GE Healthcare). The antigen human PDGF-BB (Cell Signaling, Cat. No. 8921BF) was immobilized at a concentration of 1 μg/mL in PBS, 0.1% BSA, 0.05 Tween using amine coupling chemistry on a C1 sensor chip (GE Healthcare, Cat. No. BR-1005-35). Anti-PDGF-BB antibody in increasing concentrations was applied in 10 mM HEPES pH 7.2, 150 mM NaCl. Utilizing a read out time of 180 sec. association phase and 600 sec. dissociation phase the apparent kₐ and apparent kd were calculated. The apparent KD (avidity) was calculated using the BIAcore T200 v2.0 fitting software.

The target in experiment [5] is T2, cynomolgus PDGF-BB. Briefly: SPR, IgG on immobilized cynomolgus PDGF-BB (Example 18). As for the experimental part: as §1, with “cynomolgus” for “human”, “PDGF-BB” for “PDGF-BB (Cell Signaling, Cat. No. 8921BF)”, “0.05%” for “0.05”
Background: SPR reads the build-up and loss of mass on a sensor chip optically.

The target in experiment [6] is T1, human PDGF-BB. Briefly: inhibition ELISA: biotinylated huPDGF-BB binding to immobilized Fc-tagged huPDGF-Rβ (Example 15). The procedure:
The protein-protein interaction inhibition analysis of human PDGF-BB to the human PDGF-BB receptor was carried out using an enzyme-linked immunosorbent assay (ELISA)-based technology. The human Fc-tagged PDGF-BB receptor protein (RnD, Cat. No. 385-PR-100) was immobilized at a concentration of […] in 25 μL in PBS, 0.5% BSA and 0.05% Tween on a 384 well microtiter plate (Thermo Scientific Cat. No. 464718). Every of the following steps was followed by a washing routine of 3 times 90 μL PBS with dispense and aspiration: 1) blocking step saturating unbound surface (1 hour, 2% BSA); 2) 15 μL anti-PDGF-BB antibody in increasing concentrations was incubated with 15 μL biotinylated human PDGF-BB (Cell Signaling, Cat. No. 8921BF) at 75 nM in a volume of 30 μL for 1 hour; 3) detection was achieved using peroxidase-labeled streptavidin (Roche Diagnostics GmbH, Mannheim, Germany, Cat. No. 11089153001). 20-30 min. after adding the substrate 3,3′,5,5′-tetramethylbenzidine (TMB, Piercenet, Cat. No. 34021) the optical density was determined at 370 nm. The IC₅₀ was calculated with a four parameter logistic model using GraphPad Prism 6.0 software.

T1 sequence (P01127 82-190 limits assumed): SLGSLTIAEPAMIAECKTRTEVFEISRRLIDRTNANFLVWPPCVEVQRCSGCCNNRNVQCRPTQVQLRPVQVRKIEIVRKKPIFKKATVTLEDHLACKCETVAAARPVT
T3 sequence (P31240 82-190): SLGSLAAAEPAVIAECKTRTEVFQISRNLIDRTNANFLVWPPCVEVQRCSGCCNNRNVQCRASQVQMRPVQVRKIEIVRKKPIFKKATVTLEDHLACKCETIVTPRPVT
T2 sequence (A0A2K5UX81 entry or part of it limits assumed): as the sequence (P01127 82-190 limits assumed) above, with I7V counted along it

B1: antibody 0058 (antibody, V domains shown)
VH: EVQLVESGGGLVQPGGSLRLSCAASGFTFSSFWMTWVRQAPGKGLEWVASISAGGGITHYPDSVKDRFTVSRDNAKNSLYLQLNSLRAEDTAVYYCAESGGDIYSDFDYWGQGTLVTVSS
VL: not shown
notes: Human antibody from a human Ig locus transgenic rabbit; IgG
For B1, in the experiment with human PDGF-BB [1], the “Balb-C3T3 Proliferation % neutralization” value was 100%, the “Balb-C3T3 Proliferation IC50” value came to 0.24 nM, the “Pericytes Migration % neutralization” value worked out at 100% and the “Pericytes Migration IC50” value amounted to 0.002 nM. In the experiment with human PDGF-BB [1], the “Pericytes Proliferation % neutralization” value was found to be 100% and the “Pericytes Proliferation IC50” value stood at 0.08 nM. Further, the Kd with human PDGF-BB [2] worked out at 0.046 nM. Also, in the experiment with cynomolgus PDGF-BB [3], the response was half-maximal at 0.0034 µg/mL (EC50). Further, the midpoint of the response with murine PDGF-BB, the EC50, lay at 0.0332 µg/mL. For the same molecule, in the experiment with human PDGF-BB [4], the koff was found to be 0.00011 s⁻¹ and the kon was 1.8e+06 M⁻¹ s⁻¹. Also, in the experiment with cynomolgus PDGF-BB [5], the off-rate constant (koff) was determined as 6.53e-05 s⁻¹ and the kon amounted to 2.27e+06 M⁻¹ s⁻¹. The molecule further had an IC50 with human PDGF-BB [6] of 0.0425 µg/mL.

B2: antibody 0064 (antibody, V domains shown)
VH: EVQLVESGGGLVQPGGSLRLSCAASGFTFSSYWMSWVRQAPGKGLEWVSTISDGGGTTSYADSVKGRFTISRDNSKNTLYLQMNSLRAEDTAVYSCAESGGATDYLFDYWGQGTLVTVSS
VL: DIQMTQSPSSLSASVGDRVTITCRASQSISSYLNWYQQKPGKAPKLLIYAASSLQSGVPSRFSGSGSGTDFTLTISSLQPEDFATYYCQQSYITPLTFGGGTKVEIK
notes: as for B1
B2: in the experiment with human PDGF-BB [1], the “Balb-C3T3 Proliferation % neutralization” value was found to be 100%, the “Balb-C3T3 Proliferation IC50” value stood at 0.024 nM, the “Pericytes Migration % neutralization” value worked out at 100% and the “Pericytes Migration IC50” value is 0.14 nM. Moreover, in the experiment with human PDGF-BB [1], the “Pericytes Proliferation % neutralization” value amounted to 100% and the “Pericytes Proliferation IC50” value came to 0.08 nM. Further, the Kd with human PDGF-BB [2] is 0.021 nM. Moreover, the EC50 with cynomolgus PDGF-BB [3] worked out at 0.00741 µg/mL. Also, a half-maximal effect in the experiment with murine PDGF-BB (EC50) was put at 0.00268 µg/mL. For the same molecule, in the experiment with human PDGF-BB [4], the koff was found to be 5.5e-05 s⁻¹ and the kon worked out at 720000 M⁻¹ s⁻¹. Also, in the experiment with cynomolgus PDGF-BB [5], the koff turned out to be 4.42e-05 s⁻¹ and the kon came to 740000 M⁻¹ s⁻¹. Moreover, the IC50 with human PDGF-BB [6] came out at 0.0343 µg/mL.

B3: antibody 0060 (antibody, V domains shown)
VH: EVQLLESGGDLVQPGGSLRLSCAASGFTFRSYAMSWVRQAPGKGLEWVSGISAGGGYIYYADSVTGRFTSSRDNYKNTLYLQMNRLRVEDTAVYYCARFYPGYNSDTYYYDGMDVWGQGTTVTVSS
VL: not shown
notes: as for B1
With B3, in the experiment with human PDGF-BB [1], the “Balb-C3T3 Proliferation % neutralization” value stood at 90%, the “Balb-C3T3 Proliferation IC50” value is 0.29 nM, the “Pericytes Migration % neutralization” value came out at 100% and the “Pericytes Migration IC50” value was determined as 0.013 nM. Besides, in the experiment with human PDGF-BB [1], the “Pericytes Proliferation % neutralization” value came to 100% and the “Pericytes Proliferation IC50” value worked out at 0.6 nM. In addition, the Kd with human PDGF-BB [2] was 0.021 nM. For the same molecule, a half-maximal effect in the experiment with cynomolgus PDGF-BB [3] (EC50) was put at 0.0415 µg/mL. Moreover, in the experiment with murine PDGF-BB, a half-maximal response (EC50) required 0.0428 µg/mL. Also, in the experiment with human PDGF-BB [4], the koff worked out at 2.9e-05 s⁻¹ and the kon was determined as 370000 M⁻¹ s⁻¹. For the same molecule, in the experiment with cynomolgus PDGF-BB [5], the koff is < 1e-05 s⁻¹ and the kon was determined as 330000 M⁻¹ s⁻¹. In the experiment with human PDGF-BB [6], this molecule displayed an IC50 of 0.0554 µg/mL.
